Measurements from patent US11529425B2, “Immunoconjugates comprising signal regulatory protein alpha” (DINGFU BIOTARGET CO., LTD., priority 2017, dated 2022).
“Also recorded” adds a separate entry of the source.

Test system: RBC
Assay: Binding to fresh RBC diluted 2500 times, flow cytometry
Conditions: 20 μg ml^−1, FIG. 6f
Protocol: Similarly, fresh RBC cell was diluted 2500 times, then it was incubated with 20 μg ml^−1 isotype control (human IgG1), hu56di-SIRPα, hu56di-CV1, SIRPα-Fc IgG1 and AB6.12 IgG1, respectively. The results were shown in FIG. 6f, in which serial numbers of 1, 2, 3, 4 and 5 correspond to isotype control, hu56di-SIRPα, hu56di-CV1, SIRPα-Fc IgG1 and AB6.12 IgG1.

B1: hu56di-CV1: heterodimer of hu56di-Fc9 and CV1-Fc6, Group 14 (protein)
chain 1: QVQLVESGGGLVQPGGSLRLSCAASGKMSSRRCMAWFRQAPGKERERVAKLLTTSGSTYLADSVKGRFTISRDNSKNTVYLQMNSLRAEDTAVYYCAADSFEDPTCTLVTSSGAFQYWGQGTLVTVSSGAPQVQLVESGGGLVQPGGSLRLSCAASGKMSSRRCMAWFRQAPGKERERVAKLLTTSGSTYLADSVKGRFTISRDNSKNTVYLQMNSLRAEDTAVYYCAADSFEDPTCTLVTSSGAFQYWGQGTLVTVSSEPKSSDKTHTCPPCPAPELLGGPSVFLFPPKPKDTLMISRTPEVTCVVVDVSHEDPEVKFNWYVDGVEVHNAKTKPREEQYNSTYRVVSVLTVLHQDWLNGKEYKCKVSNKALPAPIEKTISKAKGQPREPQVYTLPPCRDELTKNQVSLWCLVKGFYPSDIAVEWESNGQPENNYKTTPPVLDSDGSFFLYSALTVDKSRWQQGNVFSCSVMHEALHNHYTQKSLSLSPGK
chain 2: EEELQIIQPDKSVLVAAGETATLRCTITSLFPVGPIQWFRGAGPGRVLIYNQRQGPFPRVTTVSDTTKRNNMDFSIRIGNITPADAGTYYCIKFRKGSPDDVEFKSGAGTELSVRAKPSGGGGSDKTHTCPPCPAPELLGGPSVFLFPPKPKDTLMISRTPEVTCVVVDVSHEDPEVKFNWYVDGVEVHNAKTKPREEQYNSTYRVVSVLTVLHQDWLNGKEYKCKVSNKALPAPIEKTISKAKGQPREPQVYTLPPSRDELTKNQVSLSCGVKGFYPSDIAVEWESNGQPENNYKTTPPVLDSDGSFKLASKLTVDKSRWQQGNVFSCSVMHEALHNHYTQKSLSLSPGK
- binding to RBC: stronger binding to RBC than hu56di-SIRPα; also recorded: comparable binding to RBC with AB6.12 IgG1
